{"source": "paper PMC6615629", "about": "“Hsp70-nucleotide exchange factor (NEF) Fes1 has non-NEF roles in degradation of gluconeogenic enzymes and cell wall integrity” (PLoS Genetics, 2019)", "binders": {"B1": {"name": "GST-Fes1 (natural protein, yeast (S. cerevisiae), UniProt P38260 1-290, looked up)", "chain": "MEKLLQWSIANSQGDKEAMARAGQPDPKLLQQLFGGGGPDDPTLMKESMAVIMNPEVDLETKLVAFDNFEMLIENLDNANNIENLKLWEPLLDVLVQTKDEELRAAALSIIGTAVQNNLDSQNNFMKYDNGLRSLIEIASDKTKPLDVRTKAFYALSNLIRNHKDISEKFFKLNGLDCIAPVLSDNTAKPKLKMRAIALLTAYLSSVKIDENIISVLRKDGVIESTIECLSDESNLNIIDRVLSFLSHLISSGIKFNEQELHKLNEGYKHIEPLKDRLNEDDYLAVKYVL", "notes": "Fes1, yeast Hsp70 nucleotide exchange factor; also called wild type GST-Fes1; source: E. coli expression, purified as described [15]; not shown: GST, N-terminal, kept"}}, "test_in_all_cases": "pull-down; His6-Fbp1 (wild type or mutant) pulled down on Talon metal affinity resin; reactions with two or all three proteins; 6 μg each of His6-Fbp1 (1.6 μM), Hsp70 (0.9 μM) and GST-Fes1 (1.09 μM), with or without ATP, ADP or AMP (2.5 mM); 50 mM Tris-HCl pH 7.5, 150 mM NaCl, 2% glycerol, 5 mM MgCl2; 30 min at 4°C; washed with 5 mM imidazole, eluted with 250 mM imidazole; stained SDS-PAGE gels, bands quantified …", "details_in_all_cases": "both partners purified", "key": {"[1]": {"target": "T1, His6-Fbp1 (yeast (S. cerevisiae), UniProt P09201 1-348)", "T1 construct": "Fbp1, yeast gluconeogenic enzyme; the initiator methionine is present in the purified protein and is counted as residue 1; also called wild type His6-Fbp1; not shown: His6, N-terminal, kept", "T1 sequence (looked up)": "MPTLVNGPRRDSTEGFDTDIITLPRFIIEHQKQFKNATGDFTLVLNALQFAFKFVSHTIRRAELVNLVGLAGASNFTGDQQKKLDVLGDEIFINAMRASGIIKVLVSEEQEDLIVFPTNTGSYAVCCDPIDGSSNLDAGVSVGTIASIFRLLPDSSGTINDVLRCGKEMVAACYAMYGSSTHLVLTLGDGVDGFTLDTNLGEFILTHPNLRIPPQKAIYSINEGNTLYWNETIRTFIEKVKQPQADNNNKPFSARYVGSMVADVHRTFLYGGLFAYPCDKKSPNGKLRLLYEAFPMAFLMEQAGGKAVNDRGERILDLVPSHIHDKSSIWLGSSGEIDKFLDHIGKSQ"}, "[2]": {"target": "T2, His6-Fbp1^P2A,S12A,T13A (yeast (S. cerevisiae), UniProt P09201 1-348, P2A | S12A | T13A)", "T2 construct": "Fbp1, yeast gluconeogenic enzyme, P2A,S12A,T13A; the initiator methionine is counted as residue 1; source: E. coli expression, purified; not shown: His6, N-terminal, kept", "T2 sequence (looked up)": "T1 sequence (looked up) with P2A, S12A, T13A"}, "[3]": {"target": "T3, His6-Fbp1Δ2–12 (yeast (S. cerevisiae), UniProt P09201 1-348, Δ2–12)", "T3 construct": "Fbp1, yeast gluconeogenic enzyme, lacking amino acid residues 2–12; the initiator methionine is counted as residue 1; source: E. coli expression, purified; not shown: His6, N-terminal, kept", "T3 sequence (looked up)": "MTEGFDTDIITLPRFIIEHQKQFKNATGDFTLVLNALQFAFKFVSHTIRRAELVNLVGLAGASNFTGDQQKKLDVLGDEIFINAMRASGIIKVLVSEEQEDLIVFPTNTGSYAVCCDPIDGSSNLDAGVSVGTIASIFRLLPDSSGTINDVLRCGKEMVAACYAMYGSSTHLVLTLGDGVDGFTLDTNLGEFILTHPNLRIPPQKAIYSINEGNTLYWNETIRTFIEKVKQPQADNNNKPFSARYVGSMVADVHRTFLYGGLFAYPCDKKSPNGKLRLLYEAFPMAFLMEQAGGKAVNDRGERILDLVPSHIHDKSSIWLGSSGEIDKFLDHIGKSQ"}, "[4]": {"target": "T4, His6-Fbp1ΔP2 (yeast (S. cerevisiae), UniProt P09201 1-348, ΔP2)", "T4 construct": "Fbp1, yeast gluconeogenic enzyme, proline 2 deleted; the initiator methionine is counted as residue 1; also called Fbp1P2Δ; source: E. coli expression, purified; not shown: His6, N-terminal, kept", "T4 sequence (looked up)": "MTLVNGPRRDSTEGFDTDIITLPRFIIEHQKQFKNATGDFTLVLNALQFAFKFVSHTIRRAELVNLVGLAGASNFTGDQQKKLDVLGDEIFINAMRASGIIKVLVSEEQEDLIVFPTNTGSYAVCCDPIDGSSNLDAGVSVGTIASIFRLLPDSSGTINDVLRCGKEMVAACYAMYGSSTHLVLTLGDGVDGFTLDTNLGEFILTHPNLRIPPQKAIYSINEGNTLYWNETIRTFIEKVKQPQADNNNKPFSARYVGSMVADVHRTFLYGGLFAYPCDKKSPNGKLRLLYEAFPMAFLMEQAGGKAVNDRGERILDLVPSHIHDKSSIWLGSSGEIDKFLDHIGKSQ"}}, "note": "Numbering of substitutions follows the chain as printed."}
{"binder": "B1", "values": [{"measurement": "ratio of amounts Fes1/Ssa1 pulled down by Fbp1, no nucleotide", "setting": "[1]", "result": 0.23}, {"measurement": "ratio of amounts Fes1/Ssa1 pulled down by Fbp1, with ADP", "setting": "[1]", "result": 0.5}, {"measurement": "ratio of amounts Fes1/Ssa1 pulled down by Fbp1, with AMP", "setting": "[1]", "result": 0.18}, {"measurement": "ratio of amounts Fes1/Ssa1 pulled down by Fbp1, with ATP", "setting": "[1]", "result": 0.58}, {"measurement": "ratio of amounts Fes1/Ssa2 pulled down by Fbp1, no nucleotide", "setting": "[1]", "result": 0.33}, {"measurement": "ratio of amounts Fes1/Ssa2 pulled down by Fbp1, with ADP", "setting": "[1]", "result": 0.67}, {"measurement": "ratio of amounts Fes1/Ssa2 pulled down by Fbp1, with AMP", "setting": "[1]", "result": 0.32}, {"measurement": "ratio of amounts Fes1/Ssa2 pulled down by Fbp1, with ATP", "setting": "[1]", "result": 0.79}, {"measurement": "binding result", "setting": "[2]", "result": "binds"}, {"measurement": "binding result", "setting": "[3]", "result": "binds"}, {"measurement": "binding result", "setting": "[4]", "result": "binds"}]}
